Measurements taken from WO2014084859A1.

What was measured:
[1] = biological target: TMEM16A-GFP fusion protein on HEK293 stable cells (UniProt Q5XXA6); test: flow cytometry on HEK293-TMEM16A cells
[2] = biological target: SP31 ab64085; test: peptide blocking of SP31 ab64085, western blot of TMEM16A
[3] = biological target: peptide 44 (cyclic, flanked by cysteines, second library) (human); test: peptide microarray (RepliTope), cyclic peptide
[4] = biological target: peptide 45 (cyclic, flanked by cysteines, second library) (human); test: peptide microarray (RepliTope), cyclic peptide
[5] = biological target: peptide 46 (cyclic, flanked by cysteines, second library) (human); test: peptide microarray (RepliTope), cyclic peptide
[6] = biological target: T1, peptide 44 (linear 15-mer of the ECD1-3 library) (human); test: peptide microarray (RepliTope), linear 15-mer
T1 sequence (peptide): VQISRYKDYREPPWS

[7] = biological target: T2, peptide 46 (linear 15-mer of the ECD1-3 library) (human); test: peptide microarray (RepliTope), linear 15-mer
T2 sequence (peptide): KDYREPPWSENKYDI

[8] = biological target: T3, peptide 45 (linear 15-mer of the ECD1-3 library) (human); test: peptide microarray (RepliTope), linear 15-mer
T3 sequence (peptide): SRYKDYREPPWSENK

Sequence of UniProt Q5XXA6 (Q5XXA6 whole entry, the tested form may be a part): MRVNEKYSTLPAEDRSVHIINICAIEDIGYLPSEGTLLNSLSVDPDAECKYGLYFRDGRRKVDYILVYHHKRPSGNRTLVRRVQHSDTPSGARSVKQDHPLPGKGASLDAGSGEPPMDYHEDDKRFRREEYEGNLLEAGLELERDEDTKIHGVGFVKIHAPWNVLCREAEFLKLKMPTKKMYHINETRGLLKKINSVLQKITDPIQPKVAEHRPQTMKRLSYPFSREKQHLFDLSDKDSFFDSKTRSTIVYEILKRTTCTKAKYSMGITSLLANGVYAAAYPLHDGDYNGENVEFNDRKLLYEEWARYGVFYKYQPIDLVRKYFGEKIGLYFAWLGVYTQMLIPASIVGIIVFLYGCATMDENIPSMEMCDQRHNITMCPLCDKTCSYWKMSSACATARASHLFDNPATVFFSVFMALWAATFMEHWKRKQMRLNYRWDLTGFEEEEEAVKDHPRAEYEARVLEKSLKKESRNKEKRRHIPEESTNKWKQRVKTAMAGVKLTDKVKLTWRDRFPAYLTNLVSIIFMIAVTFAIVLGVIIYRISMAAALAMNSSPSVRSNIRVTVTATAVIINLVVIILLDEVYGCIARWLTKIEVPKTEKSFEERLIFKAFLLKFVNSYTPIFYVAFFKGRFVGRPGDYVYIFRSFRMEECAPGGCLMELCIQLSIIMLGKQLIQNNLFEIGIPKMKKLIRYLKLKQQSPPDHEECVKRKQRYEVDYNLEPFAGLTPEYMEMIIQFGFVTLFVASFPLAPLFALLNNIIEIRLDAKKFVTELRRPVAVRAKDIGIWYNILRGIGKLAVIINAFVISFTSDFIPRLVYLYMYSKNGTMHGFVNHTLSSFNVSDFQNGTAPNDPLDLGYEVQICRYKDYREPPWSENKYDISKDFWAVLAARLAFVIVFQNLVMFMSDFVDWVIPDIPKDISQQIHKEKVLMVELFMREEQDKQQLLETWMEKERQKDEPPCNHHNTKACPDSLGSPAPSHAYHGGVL

isotype control antibody (flow cytometry with 12E11)
median fluorescence intensity [1]: 93

B1: Peptide #2 (peptide)
peptide: DHEECVKRKQRYEVDYNLE
peptide concentration at which pre-incubation blocked the western blot signal [2]: 0.01 µg/mL

B2: 12E11 (antibody, V domains shown)
VH: QVQLKESGPGLVQPSQTLTLTCTVSGFSLSNYDMHWVRQSPGKGLDWMGVIWGNGKTQYNSGLTSRLSISRDTSKSQVFLKMNSLQTEDTAIYFCTRSGYYYDGSYYSLFDYWGQGVMVTVSS
VL: DVVLTQTPPTLSATIGQSVSISCRSSQSLLHSNGNTYLNWLLQRPGQPPQLLIYLVSRLESGVPNRFSGSGSGTDFTLKISGVEAEDLGVYYCVQSTHAPAFGGGTKLELK
signal over background signal (after subtraction of the signals of the unrelated antibody) [3]: > 3 times | signal over background signal (after subtraction of the signals of the unrelated antibody) [4]: > 3 times | signal (AU, arbitrary unit) [5]: 15000 AU | signal over background signal (after subtraction of the signals of the unrelated antibody) [5]: > 3 times | signal over background signal (after subtraction of the signals of the unrelated antibody) [6]: 3 times | signal (AU, arbitrary unit) [7]: 15000 AU | signal over background signal (after subtraction of the signals of the unrelated antibody) [7]: > 3 times | signal over background signal (after subtraction of the signals of the unrelated antibody) [8]: > 3 times
